Data taken from the supplement of paper PMC9170038.

System: MS2 coat protein
Test: apparent KD of MS2 coat protein; designed switch direction (-1 OFF switch, 1 ON switch): -1; higher = weaker reporter binding
Summary of the method: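 Stalled E. coli RNA polymerase transcribed designed RNA switches on Illumina chips, which were then titrated with SNAP-549-labelled MS2 coat protein, doubling from 0.7 or 1.5 nM to 3 µM. Steps lasted from 0.8–1.5 h at the lowest concentration to 10–20 min at the highest. The apparent KD is each design's median over clusters of curve-fitted normalised fluorescence.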

[1] = input ligand: microRNA oligo, concentration not stated
[2] = Eterna round: R95, input ligand: microRNA oligo, concentration not stated

Sequence	apparent KD of MS2 coat protein (input ligand: FMN 200 uM)	apparent KD of MS2 coat protein (input ligand: none)	apparent KD of MS2 coat protein [1]	apparent KD of MS2 coat protein (Eterna round: R95, input ligand: FMN 200 uM)	apparent KD of MS2 coat protein [2]	apparent KD of MS2 coat protein (Eterna round: R95, input ligand: none)
UUGAUAUGAGGAUAUUGCUAAGUCGACAUGAGGAUCACCCAUGUGAAGGAAUGUUUAUUGCAAGAAGGCGUCGCGG [Eternabot (L1) Solution 10] (Eterna round: R97, puzzle: Exclusion 5)	0.0495 µM	0.0605 µM				
ACGGCGGCUCUAGGAUAUGACGACAUGAGGAUCACCCAUGUAGCCUUAGCCUUCACGAAAAUCGAUCAGAAGGAGAGCUCCAGG [Eternabot solution 19] (Eterna round: R96, puzzle: Exclusion NG 2)	0.0135 µM	0.0176 µM	0.0109 µM			
AGGAGUAGUAAGGAUAUAGCGGACUAGUCGUCGUUAGAAGGUACUACAUGAGGAUCACCCAUGUUGACCUGAGC [EX6 B.14] (Eterna round: R97, puzzle: Exclusion 6)	0.0465 µM	0.0196 µM				
ACAAGCUUGUAAUGAUUGAACAUGAGGAUCACCCAUGUAAAUGGAAGAACCAAUUUGAUAAGAUAAACUCGUCUUAU [JR_STOV1_Sub005] (Eterna round: R97, puzzle: Sensor, turn-off variant 1)	0.0569 µM	0.0557 µM				
AAGAGCGUAGGAUAUACAUGAGGAUCACCCAUGUGAGGAGGGAAAAGGAGGUGUGGAAGUAGAAGGACGGAGUG [JR_Exclu3_Sub080] (puzzle: Exclusion 3)				0.0318 µM	0.0309 µM	0.0365 µM
UUAUUAUAUGUAGGAUAUGCAUAUUAUUAUUAUGCAGAAGGACAUGAGGAUCACCCAUGUAUGUUGUUAUUAUAUAUUAUAUAU [Title] (Eterna round: R96, puzzle: Exclusion NG 1)			0.0206 µM			
UUGACGUCGUCAGGAUAUAGUUUUAAUGUCAUGCUUUUGUUUUUACAUGAGGAUCACCCAUGUCGCUAGAAGGGACUAAAGAUU [JR_ExcNG2_Sub012] (Eterna round: R96, puzzle: Exclusion NG 2)	0.0335 µM	0.035 µM	0.0328 µM			
UAUUGCAAGCGAAGAUCCCACAUGAGGAUCACCCAUGUGCUCGUCUUAUAAGGUACUGUGACGAUAGUCACGGUACC [Mat - Sensor, turn-off var - Eli Mod - D76] (Eterna round: R97, puzzle: Sensor, turn-off variant 1)	0.034 µM	0.0306 µM				
CUUGUUUAUGUAGGAUAUGCCUGGCGUGCCUUUGCAGAAGGACAUGAGGAUCACCCAUGUAUUGCGGUCUGCGUUCAGAUCGCU [salish99_ExNG1_r4_044] (Eterna round: R96, puzzle: Exclusion NG 1)	0.0411 µM	0.0366 µM	0.0288 µM			
AACCUGAGGCAAAGCUUUAGGUGUACAUGAGGAUCACCCAUGUAGGAUAUGGUAGGCAAAGCUUACCAGAAGGACAUGUUAAUU [Mat - Exclusion NG 3 - Mod of JL - D38] (Eterna round: R96, puzzle: Exclusion NG 3)	0.172 µM	0.067 µM	0.0615 µM			
UAUAUAUAGUAAGGAUAUGUAAUUAAUUUAUAAACAGAAGGUACUGACAUGAGGAUCACCCAUGUUUUAGUGUGGGCAUGUAGA [JMF's solution 35] (Eterna round: R96, puzzle: Exclusion NG 1)			0.0716 µM			
CCUAGUUGGUAAGGAUAUCCUACACUGUUCUGACCCGGGCAUGCUACAUGAGGAUCACCCAUGUGGGAGAAGGUGCGUCAUCGC [Design 15] (Eterna round: R96, puzzle: Exclusion NG 2)	0.0305 µM	0.0373 µM	0.0271 µM			
AGCUGUGGCCGAGGAUAUGACAUGAGGAUCACCCAUGUACGUAAUUAGGCCUGGUAACAGGCUCGUCAGAAGGCGGUCUCAGCA [Eli eng2 - 008] (Eterna round: R96, puzzle: Exclusion NG 2)	0.0122 µM	0.0153 µM	0.00743 µM			
GGUGCGUUUGUGAGGAUAUGCUGGUCCUUGGUUCGGCAGAAGGCACAUGAGGAUCACCCAUGUGGUGUCGCUCC [salish99_Bmod_Ex4_050] (puzzle: Brourd's mod of Exclusion 4)					0.0364 µM	
CUGGUGCGCGGAGGAUAUCGGAAAGGAAGUGUACGAGAAGGUCGUUCCACCAAACAUGAGGAUCACCCAUGUAGGAGUGACCUC [PowerStrip EXNG 1.7] (Eterna round: R96, puzzle: Exclusion NG 1)	0.127 µM	0.0629 µM	0.0456 µM			
UUGCGGCAAGGAUAUACAUGAGGAUCACCCAUGUAGUAUUUGGUGCUGGCGAGCUGGUGUAGAAGGUGCACGCA [EX3 B.3] (Eterna round: R97, puzzle: Exclusion 3)	0.0212 µM	0.0161 µM				
